Tests used:
4H491-bA = target: T1, 4H491-bA; test: two-hybrid library CCNG1;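 further: natural log of median RNA to DNA barcode read ratio; higher means stronger binding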
T1 chain: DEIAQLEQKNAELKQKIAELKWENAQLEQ

4H2937-bA = target: T2, 4H2937-bA; test: two-hybrid library CCNG1;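 further: natural log of median RNA to DNA barcode read ratio; higher means stronger binding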
T2 chain: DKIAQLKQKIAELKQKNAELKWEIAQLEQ

4H2944-bA = target: T3, 4H2944-bA; test: two-hybrid library CCNG1;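 further: natural log of median RNA to DNA barcode read ratio; higher means stronger binding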
T3 chain: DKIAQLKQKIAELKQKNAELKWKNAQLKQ

4H342-bA = target: T4, 4H342-bA; test: two-hybrid library CCNG1;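 further: natural log of median RNA to DNA barcode read ratio; higher means stronger binding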
T4 chain: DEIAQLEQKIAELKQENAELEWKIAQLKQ

4H2883-bA = target: T5, 4H2883-bA; test: two-hybrid library CCNG1
T5 chain: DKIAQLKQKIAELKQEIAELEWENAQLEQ

4H2696-bA = target: T6, 4H2696-bA; test: two-hybrid library CCNG1
T6 chain: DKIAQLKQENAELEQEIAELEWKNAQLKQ

4H48-bA = target: T7, 4H48-bA; test: two-hybrid library CCNG1
T7 chain: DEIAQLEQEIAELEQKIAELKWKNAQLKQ

APC2556-AA = target: T8, APC2556-AA; test: two-hybrid library CCmax; settings: mean of both orientations
T8 chain: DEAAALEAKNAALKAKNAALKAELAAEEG

APC1242-AA = target: T9, APC1242-AA; test: two-hybrid library CCmax
T9 chain: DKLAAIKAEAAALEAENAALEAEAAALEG

APC2257-AA = target: T10, APC2257-AA; test: two-hybrid library CCmax; settings: mean of both orientations
T10 chain: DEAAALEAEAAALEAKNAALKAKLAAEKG

APC1916-AA = target: T11, APC1916-AA; test: two-hybrid library CCmax; settings: mean of both orientations
T11 chain: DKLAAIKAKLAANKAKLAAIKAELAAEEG

APC2724-AA = target: T12, APC2724-AA; test: two-hybrid library CCmax; settings: mean of both orientations
T12 chain: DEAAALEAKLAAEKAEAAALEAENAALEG

APC3323-AA = target: T13, APC3323-AA; test: two-hybrid library CCmax; settings: mean of both orientations
T13 chain: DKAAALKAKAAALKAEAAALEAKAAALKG

APC9141-AA = target: T14, APC9141-AA; test: two-hybrid library CCmax; settings: mean of both orientations
T14 chain: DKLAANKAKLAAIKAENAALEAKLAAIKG

APC7524-AA = target: T15, APC7524-AA; test: two-hybrid library CCmax; settings: mean of both orientations
T15 chain: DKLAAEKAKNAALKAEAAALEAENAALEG

APC4100-AA = target: T16, APC4100-AA; test: two-hybrid library CCmax; settings: mean of both orientations
T16 chain: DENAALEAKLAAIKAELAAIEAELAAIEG

APC222-AA = target: T17, APC222-AA; test: two-hybrid library CCmax; settings: mean of both orientations
T17 chain: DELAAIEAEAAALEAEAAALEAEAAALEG

APC9291-AA = target: T18, APC9291-AA; test: two-hybrid library CCmax; settings: mean of both orientations
T18 chain: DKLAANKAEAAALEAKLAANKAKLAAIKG

APC1987-AA = target: T19, APC1987-AA; test: two-hybrid library CCmax; settings: mean of both orientations
T19 chain: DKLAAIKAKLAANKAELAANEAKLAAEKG

APC5009-AA = target: T20, APC5009-AA; test: two-hybrid library CCmax; settings: mean of both orientations
T20 chain: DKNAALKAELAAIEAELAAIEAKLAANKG

APC4336-AA = target: T21, APC4336-AA; test: two-hybrid library CCmax; settings: mean of both orientations
T21 chain: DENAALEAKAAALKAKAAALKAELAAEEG

APC3881-AA = target: T22, APC3881-AA; test: two-hybrid library CCmax; settings: mean of both orientations
T22 chain: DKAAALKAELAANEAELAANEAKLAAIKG

APC8401-AA = target: T23, APC8401-AA; test: two-hybrid library CCmax; settings: mean of both orientations
T23 chain: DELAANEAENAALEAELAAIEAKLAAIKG

APC9182-AA = target: T24, APC9182-AA; test: two-hybrid library CCmax; settings: mean of both orientations
T24 chain: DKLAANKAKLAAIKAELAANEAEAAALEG

APC2474-AA = target: T25, APC2474-AA; test: two-hybrid library CCmax; settings: mean of both orientations
T25 chain: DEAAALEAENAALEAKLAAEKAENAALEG

APC8516-AA = target: T26, APC8516-AA; test: two-hybrid library CCmax; settings: mean of both orientations
T26 chain: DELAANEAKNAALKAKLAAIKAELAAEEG

APC542-AA = target: T27, APC542-AA; test: two-hybrid library CCmax; settings: mean of both orientations
T27 chain: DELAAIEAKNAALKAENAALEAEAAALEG

APC2981-AA = target: T28, APC2981-AA; test: two-hybrid library CCmax; settings: mean of both orientations
T28 chain: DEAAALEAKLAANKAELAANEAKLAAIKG

APC2811-AA = target: T29, APC2811-AA; test: two-hybrid library CCmax; settings: mean of both orientations
T29 chain: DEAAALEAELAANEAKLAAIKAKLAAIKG

APC2543-AA = target: T30, APC2543-AA; test: two-hybrid library CCmax; settings: mean of both orientations
T30 chain: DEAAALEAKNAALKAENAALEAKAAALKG

APC5531-AA = target: T31, APC5531-AA; test: two-hybrid library CCmax; settings: mean of both orientations
T31 chain: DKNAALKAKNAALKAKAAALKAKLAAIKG

APC3265-AA = target: T32, APC3265-AA; test: two-hybrid library CCmax; settings: mean of both orientations
T32 chain: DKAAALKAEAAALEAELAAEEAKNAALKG

APC3354-AA = target: T33, APC3354-AA; test: two-hybrid library CCmax; settings: mean of both orientations
T33 chain: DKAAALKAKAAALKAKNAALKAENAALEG

APC9806-AA = target: T34, APC9806-AA; test: two-hybrid library CCmax; settings: mean of both orientations
T34 chain: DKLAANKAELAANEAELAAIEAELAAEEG

APC6088-AA = target: T35, APC6088-AA; test: two-hybrid library CCmax; settings: mean of both orientations
T35 chain: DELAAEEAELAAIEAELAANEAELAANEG

APC2375-AA = target: T36, APC2375-AA; test: two-hybrid library CCmax; settings: mean of both orientations
T36 chain: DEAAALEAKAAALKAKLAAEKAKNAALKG

Binder DKIAQLKQENAELEQEIAELEWKNAQLKQ [4H2696-bA] has an interaction score (4H491-bA) of 1.93, an interaction score (4H2937-bA) of 0.659 and an interaction score (4H2944-bA) of 0.173. It also gave an interaction score (4H342-bA) of -0.319, an interaction score (4H2883-bA) of 0.674 and an interaction score (4H2696-bA) of -0.668. For the same binder, the interaction score (4H48-bA) was -0.267.

DKLAAIKAEAAALEAENAALEAEAAALEG [APC1242-AA] gave an interaction score (APC2556-AA) of -1.73, an interaction score (APC1242-AA) of -1.39 and an interaction score (APC2257-AA) of -1.45. It also gave an interaction score (APC1916-AA) of -0.197, an interaction score (APC2724-AA) of -1.96 and an interaction score (APC3323-AA) of -1.85. For the same binder, the interaction score (APC9141-AA) was -1.7, the interaction score (APC7524-AA) was -1.82 and the interaction score (APC4100-AA) was -1.76. The interaction score (APC222-AA) was -1.71, the interaction score (APC9291-AA) was -1.76 and the interaction score (APC1987-AA) was -1.67. For the same binder, the interaction score (APC5009-AA) was -1.74, the interaction score (APC4336-AA) was -2.21 and the interaction score (APC3881-AA) was -1.81. It also gave an interaction score (APC8401-AA) of -1.53, an interaction score (APC9182-AA) of -1.34 and an interaction score (APC2474-AA) of -1.53. It also gave an interaction score (APC8516-AA) of -1.75, an interaction score (APC542-AA) of -2.16 and an interaction score (APC2981-AA) of -1.87. The interaction score (APC2811-AA) was -1.73, the interaction score (APC2543-AA) was -1.38 and the interaction score (APC5531-AA) was -1.83. For the same binder, the interaction score (APC3265-AA) was -1.56, the interaction score (APC3354-AA) was -1.74 and the interaction score (APC9806-AA) was -1.43. For the same binder, the interaction score (APC6088-AA) was -1.12 and the interaction score (APC2375-AA) was -1.54.

Reference: paper PMC10397247
